This is an account of results in PMC8664833.

The target in data set [1] is ZAP-S (short isoform of zinc-finger antiviral protein) (human, UniProt Q7Z2W4-2 1-699). Description: MST; 5 mM Mg2+. Conditions: protein: recombinant; tags: N-terminal 6xHis-SUMO; label: 3' pCp-Cy5; pseudoknot (SL1, SL2, SL3).
Data set [2] addresses IMP3 (IGF2BP3) (UniProt O00425 1-579). Description: MST; 5 mM Mg2+. Conditions: protein: recombinant; tags: His-SUMO; label: 3' pCp-Cy5; pseudoknot (SL1, SL2, SL3).

Chain of IMP3 (IGF2BP3) (O00425 whole entry): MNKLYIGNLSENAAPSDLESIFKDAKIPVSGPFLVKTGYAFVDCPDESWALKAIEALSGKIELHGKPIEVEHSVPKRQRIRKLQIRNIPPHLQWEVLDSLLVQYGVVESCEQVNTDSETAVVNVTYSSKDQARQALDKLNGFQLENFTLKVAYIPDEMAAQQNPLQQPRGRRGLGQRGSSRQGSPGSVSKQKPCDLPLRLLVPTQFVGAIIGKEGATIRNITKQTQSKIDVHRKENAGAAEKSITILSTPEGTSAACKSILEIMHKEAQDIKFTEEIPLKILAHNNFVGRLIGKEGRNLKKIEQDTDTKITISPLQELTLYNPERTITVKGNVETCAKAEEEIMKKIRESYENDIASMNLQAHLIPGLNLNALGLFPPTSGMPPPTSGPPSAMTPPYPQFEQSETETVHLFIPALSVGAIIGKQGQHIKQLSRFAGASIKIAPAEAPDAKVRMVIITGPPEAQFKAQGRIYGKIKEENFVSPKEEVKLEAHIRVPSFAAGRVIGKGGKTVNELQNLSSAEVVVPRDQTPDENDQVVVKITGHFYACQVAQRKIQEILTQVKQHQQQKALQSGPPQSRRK
Chain of ZAP-S (short isoform of zinc-finger antiviral protein) (Q7Z2W4 other isoform, or with tags, fused parts or gaps): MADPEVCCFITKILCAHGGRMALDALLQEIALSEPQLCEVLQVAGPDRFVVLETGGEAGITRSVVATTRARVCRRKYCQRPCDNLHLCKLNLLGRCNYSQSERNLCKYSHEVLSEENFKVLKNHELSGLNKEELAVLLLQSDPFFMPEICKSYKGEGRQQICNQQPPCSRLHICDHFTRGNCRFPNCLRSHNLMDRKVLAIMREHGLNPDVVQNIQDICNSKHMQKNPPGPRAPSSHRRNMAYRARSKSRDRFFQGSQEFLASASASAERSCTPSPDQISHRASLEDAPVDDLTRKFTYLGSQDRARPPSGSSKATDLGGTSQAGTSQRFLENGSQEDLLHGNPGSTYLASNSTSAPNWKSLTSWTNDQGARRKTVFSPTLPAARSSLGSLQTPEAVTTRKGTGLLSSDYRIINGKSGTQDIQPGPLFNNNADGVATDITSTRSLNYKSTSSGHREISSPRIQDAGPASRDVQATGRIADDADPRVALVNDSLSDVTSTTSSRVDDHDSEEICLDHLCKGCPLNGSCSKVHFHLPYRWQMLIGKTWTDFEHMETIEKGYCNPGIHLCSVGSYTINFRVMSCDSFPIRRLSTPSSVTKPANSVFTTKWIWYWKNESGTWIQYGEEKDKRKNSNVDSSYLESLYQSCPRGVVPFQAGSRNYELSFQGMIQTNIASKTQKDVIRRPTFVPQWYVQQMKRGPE

B1: Full PRF (WT SARS-CoV-2 -1PRF RNA) (structured_RNA)
RNA: UCGUUUUUAAACGGGUUUGCGGUGUAAGUGCAGCCCGUCUUACACCGUGCGGCACAGGCACUAGUACUGAUGUCGUAUACAGGGCUUUUGACAUCUACAAUGAUAAAGUAGCUG
A word on the Kd: it is the free concentration of one partner at which half of the binding sites on the other are occupied at equilibrium, for simple one-to-one binding. Regarding B1, the figures for the Kd in data set [1] and in data set [2] were 110 ± 9 nM and 806 ± 252 nM, respectively.
